These results are taken from article PMC10275640.

Broadly, the stoichiometry N is a count of units in the complex or per binding partner.

Assay [1] has as its target Uso1 CCD-His6x (coiled-coil domain, residues 660–1103) (Aspergillus nidulans). As to the kind of experiment: AUC + other: dynamic light scattering; sedimentation velocity (20 °C, 48,000 rpm, PBS with 5% glycerol and 1 mM β-mercaptoethanol) and DLS at 20 °C; molecular mass from the Svedberg equation, compared with the predicted monomer.
Assay [2] deals with Bos1-GST (Bos1 cytoplasmic domain, residues 1–219) (Aspergillus nidulans). As to the kind of experiment: pull-down; 75 µg SNARE-GST on glutathione Sepharose; His6 preys at 0.2 µM, overnight at 4 °C in 25 mM HEPES-KOH pH 7.5, 150 mM NaCl, 10% glycerol, 0.1% Triton X-100, 0.1 mM DTT; anti-His blot.
Assay [3] has as its target Bos1-GST (Bos1 cytoplasmic domain, residues 1–219). As to the kind of experiment: GST pull-down with purified proteins, anti-His6x western blot quantitation. The following applies: 4 data points; parent: est. 0.5; read off a plot.
Assay [4] shares this target. As to the kind of experiment: GST pull-down with purified proteins, anti-His western blot quantitation. The following applies: n = 3; parent: est. 0.7; read off a plot. (In general: In western blotting, separated proteins are transferred to a membrane and probed.)
Assay [5] addresses Bet1-GST (Bet1 cytoplasmic domain, residues 1–144). Described as above. To be noted: n = 3, read off a plot.
Assay [6] concerns the target Uso1(E6K/G540S)-His6x (full length) (Aspergillus nidulans). As to the kind of experiment: AUC + other: dynamic light scattering; sedimentation velocity (20 °C, 48,000 rpm, PBS with 5% glycerol and 1 mM β-mercaptoethanol) and DLS at 20 °C; molecular mass from the Svedberg equation, compared with the predicted monomer.
In assay [7] the target is Uso1(E6K/G540S)ΔCTR-His6x (residues 1–1040) (Aspergillus nidulans). The description is as above.
Assay [8] concerns the target Uso1-HA3 (native full-length Uso1 in Aspergillus extract) (Aspergillus nidulans). As to the kind of experiment: SEC; Aspergillus cell extract on Superose 6 10/300 in 25 mM Tris-HCl pH 7.5, 600 mM KCl, 4 mM EDTA, 1 mM DTT; fractions blotted with α-HA. For orientation: In gel filtration, larger molecules generally elute earlier.
Assay [9] deals with Uso1-His6x (full-length Uso1, residues 1–1103) (Aspergillus nidulans). As to the kind of experiment: AUC + other: dynamic light scattering; sedimentation velocity (20 °C, 48,000 rpm, PBS with 5% glycerol and 1 mM β-mercaptoethanol) and DLS at 20 °C; molecular mass from the Svedberg equation, compared with the predicted monomer.
For assay [10] the target is unchanged. As to the kind of experiment: SEC; bacterially expressed, purified His-tagged reference proteins run on the same Superose column; fractions blotted with α-His.
Assay [11] addresses Bet1-GST (Bet1 cytoplasmic domain, residues 1–144) (Aspergillus nidulans). As to the kind of experiment: pull-down; 75 µg SNARE-GST on glutathione Sepharose; His6 preys at 0.2 µM, overnight at 4 °C in 25 mM HEPES-KOH pH 7.5, 150 mM NaCl, 10% glycerol, 0.1% Triton X-100, 0.1 mM DTT; anti-His blot.
The target in assay [12] is Uso1ΔCTR-His6x (residues 1–1040) (Aspergillus nidulans). In words: AUC + other: dynamic light scattering; sedimentation velocity (20 °C, 48,000 rpm, PBS with 5% glycerol and 1 mM β-mercaptoethanol) and DLS at 20 °C; molecular mass from the Svedberg equation, compared with the predicted monomer.

Consider “Uso1 CCD-His6x (coiled-coil domain, residues 660–1103) (domain or fragment)”, for which, in assay [1], the stoichiometry N was 2.
In assay [2], “Uso1 GHD E6K (single mutant), His-tagged (domain or fragment)” registered a fold less efficient than G540S GHD of 3 fold.
In the case of “Uso1 GHD-His6x (globular head domain, residues 1–659) E6K; G540S”, the response (% of input prey bound) in assay [3] is 35. Further, the results for the response in [4] and in assay [5] (parent: est. 30) were 21 % bound prey and 38 % bound prey, respectively.
As to “Uso1 GHD-His6x (globular head domain, residues 1–659) G540S”, the response (% of input prey bound) in [3] turned out to be 35.
For “Uso1(E6K/G540S)-His6x (full length) (natural protein)”, the stoichiometry N in [6] was 2. The substance also yielded a fold change in protein retained against wild-type Uso1 in assay [2] of 5 fold.
On to “Uso1(E6K/G540S)ΔCTR-His6x (residues 1–1040) (domain or fragment)”, for which the stoichiometry N in assay [7] is 2.
In the case of “Uso1-HA3 (native full-length Uso1 in Aspergillus extract) (natural protein)”, in [8], the stoichiometry N amounted to 2.
In the case of “Uso1-His6x (full-length Uso1, residues 1–1103) (natural protein)”, the stoichiometry N in assay [9] and in assay [10] was 2 each time. In [11], the percent of the prey pulled down is 70%.
Turning to “Uso1-His6x (full-length Uso1, residues 1–1103) E6K; G540S”, the response in assay [5] (parent: est. 68) was determined as 60 % bound prey.
With “Uso1ΔCTR-His6x (residues 1–1040) (domain or fragment)”, in [12], the stoichiometry N is 2.
